Test system: differentiated HL-60 neutrophils
Test: vE/D ratio and ectodomain charge estimation, under-agarose cells immobilized with Latrunculin A in an electric field
Format: cell-based, human
Details: averaged across all electric field conditions; ± SEM
Method: Experimental Setup. Cells were resuspended to a concentration of 2×10^6 cells/ml in L-15 Medium with 10% hiFBS. With an ibiTreat μ-Slide-I (Ibidi, #80106) placed on a 37° C. heat block, 100 μL of cells were added to the channel and incubated for 5 minutes to allow them to sediment and loosely adhere to the bottom coverslip. Warm, liquid 2.5% UltraPure low melting point agarose (Invitrogen of Waltham, MA, #16520-050) in L-15 with 10% hiFBS was added to one channel reservoir and then centrifuged at 28-37° C. for 5 min at 700 g. This was performed in a custom 3D-printed swinging bucket rotor plate adaptor (design available upon request). Immediately after centrifugation, the slide was incubated on a 20° C. cooling plate (STIR-KOOL, Ladd Research of Essex Junction, VT; #SK-12D-AW) for 5 minutes to gel. […] L-15 media with 10% hiFBS was added to both reservoirs. […]
Quantification of vE/D Ratio and Estimation of Charge. […] Under the imaging conditions (800 nm axial resolution), the measured fluorescence intensities will reflect fluorescence predominantly at this surface, and the biological system is treated as a flat two-dimensional surface. […]

B1: Galvanin: single-pass transmembrane protein (161 amino acids, UniProt ID: Q6P9G4), electric field sensor (protein)
chain: NYEELENSGDTTVESERPNKVTIPSTFAAVTIKETLNANINSTNFAPDENQLEFILMVLIPLILLVLLLLSVVFLATYYKRKRTKQEPSSQGSQSALQTYELGSENVKVPIFEEDTPSVMEIEMEELDKWMNSMNRNADFECLPTLKEEKESNHNPSDSES
  net charge estimated from vE/D: −18 e
